In the nanobody polyreactivity screen of Harvey et al. (2022):

Experiment: yeast display, Sf9 membrane polyspecificity reagent, FACS + sequencing; frameworks hold sequencing errors
Summary of the method: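 Synthetic nanobody libraries on Saccharomyces cerevisiae BJ5465 were galactose-induced for 36–48 hours, stained 1 hour at 4 °C with 10% biotinylated, detergent-solubilized Sf9 membrane reagent and enriched on streptavidin microbeads. FACS then separated cells into low and high (top ~1%) gates by anti-HA (expression) and streptavidin (reagent binding) fluorescence. Genes were colony-PCR amplified, MiSeq 2 × 250 sequenced and CDR-length filtered. A clone's polyreactivity label is that of its gate of origin.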

Row | Sequence | polyreactivity (PSR sort gate)
1 | QVQLVESGGGLVQAGGSLRLSCAASGSIYNRYAMGSYRQAPRQERELVAAITQSTDSTYYADSVKGRITISRDNAMITVYLQMNSLKPEDTAVYYCAAYLVYYRPYAYGYWGQGTQVTVSS | low polyreactivity
2 | QVQLVESGGRLVQAGGTLRLSCAASGRIFGDYAMGWYRQAPGKERELVAVISVGGRTTYADSVKGRFTISRDNAKNTVYLQMNSLKPEDTAVYYCATRLSTRDGGYRGQGTQVTVSS | low polyreactivity
3 | QVQLVESWGGLVQAGGRLRLSCAASGRTFPGYAMGWYRPAPRKERELVAGISYRGGSTYYADSVKGRFTISRDNAKYTDYLQMNSLNPEDTAVYYCARDYSRHKGDYWGQGTQVTVSS | low polyreactivity
4 | QVQLVESGGGLVQAGGSLRLSCAASGRTFRRNAMGWYRQAPGKERELVAAINTGGGTYYADSVKGRFTISRDHAKNTVYLQMNSLKPEDTAVYYCNAGTRYGSFSYVKYDWGQGTQVTVSS | high polyreactivity
5 | QVQLVESGGGLVQVGGSLRLSCAASGSILTDYGMGWNRPAPGKERELVAVIDFSSGSTYYADSVKGRFTISRDNAKNTVYLQMNSLKPEDTAVYYCAAGPDPLGEDYWGQGTQVTVSS | low polyreactivity
6 | QVQLVESGGGLVQAGGSLRLSCAASGSTFGRNAMGWYRQAPGKERELVAAISNGGSTNYADSVKGRFTISRDNAKNTVYLQMNSLNPEDTAVYYCNRRVPYSFYSRGYYYWGQGTQVTVSS | high polyreactivity
7 | QVQIVESGGGLVQAGGSLRLSCAASGRIIRDYDMGWYRQAPGKERELVAAITFRSGSTYYADSEKGRFTISRDNAKNTVYLLMNSLKPEDTAVYYCADANSILLFDSWGQGTQVTLSS | low polyreactivity
8 | QVQLVESGGGLVQAGGSLHLSCAASGSIFRKNAMGWYRQAPGKERELVAVITSSGASTYYADSVKGRFTISRDNAKNTVYLQMNSLKPEDTAVYYCNAPSFYTKKMYSWGQGTQVTVSS | high polyreactivity
9 | QVQLQESGCGLVQAGGSLRLSCAASGYISSWYPMGWYRQAPGKEREFVATIAPGATTYYADSVKGRFTISRDYSINTVYLQMNSLKPEDTAVYYCAAGPENNDFYSYWGQGTQVTVSS | low polyreactivity
10 | QVQLVESGGGLVQAGGSLRLSSAASGRTFTRYTMGWYRQAPGKERELVAAIRYSGGSTYYADSVKGRFTISRDNAKNTVYLQMNSLKPEDTAVYYCAARSYYYGFLYRYDYWGQGTQVTVSS | low polyreactivity
11 | QVQLVESGGGLVQAGGSLRLSCAASGSTFSWYAMGWYRQAPGKERELVAAISSGGSTNYADSVKGRFTISRDNAKNTVYLQMNSMKPEDTAVYYCAAVWSRFLISYSTGWWFEYWGQGTKVTVSS | low polyreactivity
12 | QVQLVESGGGLVQAGGSLRLSCAASGRTLVWYTMGWYRQAPGKEREFVAVITTGSGSTYYADSVKGRFTISRDNAKNTVYLQMNSLKPEDTAVYYCNAGYGGYSYHYPPYEYWGQGTQVTVSS | low polyreactivity
13 | QVQLVESGGGLVQAGGSLRLSCAASVRIFFRYAMGWYRQAPGKERELVAAIRKSGGSTYYADSVKGRFTISRDNAKNTVYFQMNSLKPEDTAVYYCAADVYYYYGRKYNYWGQGTQVTVSS | low polyreactivity
14 | HVQLQESGGGLVQAGGSLRLSCAASGNISYSRNMGWYRQAPGKERELVAAIDRGAITYYADSVKGRFTISRDNAKNTVYLQIYSLKPEDTAVYYCAAEDHDRWDHLYWGQGTQVTVSS | high polyreactivity
15 | QVQLVESGGGLVQAGGSLRLSCAASGLTFVYYAMGWYRQAPGKERELVAAISGVGSTHYADSVKGRFTISRDNANNTVYLQMNSLKPEDTAVYYCNADYAYFWGWYGDWGQGTQVTVSS | low polyreactivity
16 | QVQLVESGGGLVQAGGSLRLSCAASGSIFWPNAMGWYRQAPGKERELVASITRAGSTNYADSVKGRFTISRDNAQNTVYLQMNSLKPEDTAVYYCAAYFWGGYNYWGQGTQVTVSS | low polyreactivity
17 | QVQLVESGGGLVQAGGSLRLSCAASGFTFTNYAMGWYRQAPGKERELVAAINSSGSTNYADSVKGRFTISRDNAKNTVYLQMNSLKPEDTAVYYCAVDYSYWVHGFWDDYDYWGQGTQVTVSS | low polyreactivity
18 | QVQLVESGGGLVQAGGSLRLSCAASGSTFWFNAMGWYRQAPGKERELVAAITYRGASTNYADSVKGRFTISRDNAKNTVYLQMNSLKPEDTAVYYCATRPTWRPVPDSDVSTYGYWGQGTQVTVSS | low polyreactivity
19 | QVQLVESGGGLVQAGGSLRLSCAASGSTFSYNAMGWYRQAPGKERELVAAITSRGGSTRYADSVKGRFTISRDNAKNTVYLQMNSLKPEDTAVYYCARPYSYYPYSTVNYWGQGTQVTVSS | high polyreactivity
20 | QVQLVESGGCLVQAGGRLRLSCAASGSTFGRNAMGWYRQAPGKERELVAAISTSDGRTYYADSVKGRFTISRDNAKNTVYLQMNSLKPEDTAVYYCAADGETLPPRILGESEGDYWGQGTQVTVSS | low polyreactivity
21 | QVQLVESGGGLVQAGGSLRLSCAASGRTFQSYAMGWYRQAPGKERELVAAITITGGRTYYADSVKGRFTISRDNAKNTVYLQMNSLKPEDTAVYYCADYDYWGQGTQVTVSS | low polyreactivity
22 | QVHLVESGGGLVQAGGSLRLSCAASGSNFDINAMGWYRQAPGKERELVAVITDSGSTYYADSVKGRFTISRDNAKNTVYLQMNRLKPEDTAVYYSAADQVVAGLLTPEYDYWGQGTQVTVSS | low polyreactivity

Row | Sequence | polyreactivity (PSR sort gate)
23 | QVQLVESGGGLVQAGGSLRLSCAASGRTFYRYAMGWYRQAPGKERELVASISSGGSTDYADSVKGRFTISRDNAKNTVYLQMNSLKPEDTAVYYCNAEIVGFWTSYDYWGQGTQVTVSS | low polyreactivity
24 | QVQLVESGGGLVQAGGSLRLSCHASGSTFTFNAMGWYRQAPGKERELVADITSGGRTNYADSVKGRFTISRDNAKNTVYLQMNSLKPEDTAVYYCAARWSAHEYPGYDSWGQGTQVTVSS | low polyreactivity
25 | QVQLVESGGGLVQAGGSLRLSCAASGRTFFVNAMGWYRQAPGKERELVAAITWSGGSTYYADSVKGRFTISRDNAKNTVYLQMNSLKPEDTAVYYCAAEYYSYSYSYYYYGYEYWGQGTQVTVSS | high polyreactivity
26 | QVQLHESGGGLVQAGGSLRLICAASGSISILQSMGWYRQAPGKERELVAGINWGATTYYADRVKGRLTTSRDYAKNTVYLQMNSLKPEATAVYYCAVPTYYTNPLLYWGQGTQVTVSS | low polyreactivity
27 | QVQLVESGGGLVQAGGSLRLSCAASGFIFRGYAMGWYRQAPGKERELVAAISRRGGSTYYADSVKGRFTISRDNAKNTVYLQMNSLKPEDTAVYYCNARIRYVYWHSYDYWGQGTQVTVSS | high polyreactivity
28 | QVQLVESGGGLVQAGGSLRLSCAASGFIFHLYAMGWYRQAPGKERELVAVISGGGSTYYADSVKGRFTISRDNAKNTVYLQMNSLKPEDTAVYYCNVGRYYRYATGGDYWGQGTQVTVSS | high polyreactivity
29 | QVQLVESGGGLVQAGGSLRLTCAASGSIFRYYAMGWYRQAPGKERELVAAISRSGGSTYYADSVKGRFTISRDNAKNTVYLQMNSLKPEDTAVYYCAAEYRVRSQGYDYWGQGTQVTVSS | high polyreactivity
30 | QVQLVESGGGLVQAGGSLRLTCAASGLIFGYNAMGWYRQAPGKEREFVAGISVIDGRTYYADSVKGRFTISRDNAKNTVYLQMISLKPEDTAVYYCAADRWYKYYFLTYGYWGQGTQVTVSS | low polyreactivity
31 | QVQLVESGGGLVQAGGSLRLSCAASGSTFPYNAMGWYRQAPGKERELVAAITGRGGSTYYADSVKGRFTISRDNAKNTVYLQMNSLKPEDTAVYYCAARYLYLLYYWGQGTQVTVSS | high polyreactivity
32 | QVQLVESGGGLVQAGGSLRLSCAASGIFVGNAMGWYRQAPGKERELVAAITGDGDSTYYADSVKGRFTISRDNAKNTVYLQMNSLKPEDNAVYYCNTVFDTIVDKYYYWGQGTQVTVSS | low polyreactivity
33 | QVQLVESGGGLVQAGCSLRLSCDASGSIFTWYAIGWYRQAPGKERELVAAITRGGSTYADSVKGRFTISRDNAKNNVYLQMNSLKPEDSAVYYCAARRVPIRVGGYPYYYWGQGSQVTVSS | low polyreactivity
34 | QVQLVESGGGLVQAGGSLRLSCAASGSIFPQYAMGWYRQAPGKERELVAAITRSGGGTHYADSVKGRFTISRDYAKNTVYFQMNSLKPEDTAVYYCAKAGYRSEFEYWGQGTQVTVSS | low polyreactivity
35 | QDQLVESGGGLVQAGGSLRLSCAASGSIFNGNAMGWYRPAPGKERELVAAITRRGGRTFYADSVKGRFTISRDNAKNSVYLQMNSLKPEDTAVYYCNAYSKAVQGGYDYWGQGTQVTVSS | high polyreactivity
36 | QVQLVESGGGLVQAVGSLRLSCAASGFTFQHYAMGWYRQAPGNERELVAVISFSGGRTYYADSVKGRFTISRDNAKNTVYLQMNSLKPEDTAVYYCAAVFWDDYGKYYYWGLGTQVTVSS | high polyreactivity
37 | QVQHVESGGGLVQAGGSLLLSCAASGSIFEINAMGWYRQAPGKERELVADIRRGDSTNYADSVKGRFTNSRDNAKNTVYLQMNSLKPEDTAVYYCAARWRRSKYGVYPQRPYDYWGQGTQVTVSS | high polyreactivity
38 | QVQLVETGGGLVQAGGSLRLSCAASGRTYSTYAMGWYRQAPGKERDLVADISWRGAPTYYADSVKGRFTISRDNAKNTVYLQIISQKPEYTAVYYFAAAPYGYLRYEYWGLGTQVTVSS | high polyreactivity
39 | QVQLVESGGGLVQAGGSLRLSCAASGRTIKYNAMGRYRQGPGKERELVAAITYSGGSTYYADSVKGRFTIARDNAKNTVYLQMNSLKPEDTSVYYCAAESRPYDPGIYGDYDYWGQGTQVTVSS | low polyreactivity
40 | QVQLVESGGGLVQAGGSLRLSCAASGIIFWRYAMGWYRQAPGKERELVAAISRRGGSTYYADSVKGRFTISRDNAKITVYLQMNSLKPEDTAVYYCAVLDWTLHYRSDYWGQGTQVTVSS | high polyreactivity
41 | PVQLVESGGGLVQAGGSLRLSCAASGSTFYIYAMGWYRQAPGKERELVAAITSRGTITSYADSVKGRFTISRDNAKNTVYLQMNSLKPEDTAVYYCAADYWQDGIAYWYDYWGQGTQVTVSS | low polyreactivity
42 | QVQLVESGGGLVQAGGSLRLSCAASGFTLYSNTMGWYRQAPGKERELVAAINYSGGSTYYADSVKGRFTISRDNAKNTVYLQMNSLKPQDTAVYYCATDLHWLVTKYGYWGQGTQVTVSS | low polyreactivity
43 | QVQLVESGGGLVQAGGSLRLSCAASGRIFPVNAMGWYRQAPGKERELVARISWRGGTYYADSVKGRFTISRDNAKNTVYLQMNSLKPEDTAVYYCAATLPSTSYWYHYGYWGQGTQVTVSS | high polyreactivity
